target: T1, HLA-A*02:01 (human); assay: UV peptide exchange ELISA
T1 construct: monomers captured on streptavidin plates; also called MHC class I
Method in brief: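 Peptide-MHC complexes formed by UV-triggered exchange of a cleavable peptide for the test peptide, with stabilised complexes indicating binding. Exchange products diluted 100 fold onto streptavidin-coated wells, 1h at 37° C.; HRP anti-β2m (2 μg/ml), TMB, absorbance at 450 nm gives exchange yield.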

Binder	peptide exchange yield
YVLEDLEVTV	20 to 50%
ALQPEPIKV	20 to 50%
KMWEELPEVV	50 to 75%
KLWTGGLDNTV	50 to 75%
GLNDRSDAV	20 to 50%
SLFDGFADGLGV	50 to 75%
YLRSVGDGETV	50 to 75%
KLLEATSAV	20 to 50%
ALMERTGYSMV	50 to 75%
ALITEVVRL	20 to 50%
YLYNNMIAKI	50 to 75%
GLLEKLTAI	50 to 75%
FLAKDFNFL	50 to 75%
KLNAEVACV	50 to 75%
AMLEKNYKL	≥ 75%
GLIEDYEALL	50 to 75%
YLLHEKLNL	50 to 75%
ILVEADSLWVV	50 to 75%
KIFDIDEAEEGV	20 to 50%
SLWPSPEQL	20 to 50%
LLMPIPEGLTL	50 to 75%
QLCDLNAEL	50 to 75%
TLLVKVFSV	50 to 75%
ALLEDSCHYL	50 to 75%
KLPPPPPQA	50 to 75%

Binder	peptide exchange yield
GLLHLTLLL	50 to 75%
FLLEDDIHVS	50 to 75%
SLMEDQVLQL	50 to 75%
GLSDGNPSL	20 to 50%
FLAEDPKVTL	50 to 75%
LLLNEEALAQI	50 to 75%
AMATESILHFA	50 to 75%
RLLAQVPGL	50 to 75%
ILAQEQLVVGV	50 to 75%
SLVESHLSDQLTL	50 to 75%
SLIEKVTQL	50 to 75%
ALLPASGQIAL	50 to 75%
FLLQHVQEL	50 to 75%
FIFSEKPVFV	50 to 75%
TLWYRSPEV	20 to 50%
SVAPNLPAV	50 to 75%
VLIANLEKL	≥ 75%
KLLEVSDDPQV	50 to 75%
SLFGNSGILENV	50 to 75%
MLLTKLPTI	50 to 75%
YLDPALELGPRNV	50 to 75%
SLMPHIPGL	50 to 75%
FLVEKQPPQV	50 to 75%
VMFRTPLASV	20 to 50%
AVGPASILKEV	20 to 50%

Binder	peptide exchange yield
SLIDKLYNI	20 to 50%
SLLPGNLVEKV	50 to 75%
NVPDSFNEV	50 to 75%
LAVHPSGVAL	10 to 20%
LLINSVFHV	50 to 75%
KLYSVVSQL	20 to 50%
GLLGEKTQDLIGV	50 to 75%
LLQELVLFL	50 to 75%
KLLGKVETA	50 to 75%
FLDPYCSASV	20 to 50%
KLIDDQDISISL	50 to 75%
SLNHFTHSV	50 to 75%
FLFDTKPLIV	50 to 75%
KINDTIYEV	50 to 75%
SLSEIVPCL	50 to 75%
LLDPNVKSIFV	50 to 75%
YLASDEITTV	50 to 75%
LLIGHLERV	50 to 75%
ALNDCIYSV	50 to 75%
SLAPGDVVRQV	20 to 50%
AVMESIQGV	50 to 75%
SLLKEPQKVQL	20 to 50%
KLAKQPETV	50 to 75%
